Results: the supplement of paper PMC10899765

Columns and labels:
Details in all cases: 20 nM; 72 h
MCF10A [1] = experiment: 5+ nucleoli phenotype percent effect (relative to siNT 0% and siKIF11 100%); higher = more cells with five or more nucleoli
Experimental: (§1)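 After 72 h, cells were fixed and stained with Hoechst and anti-fibrillarin, and nucleoli per nucleus were counted with CellProfiler. Values are plate-adjusted percent effect for the one-nucleolus and 5+ nucleoli phenotypes, normalised to siNT (0%) and to the positive controls siNOL11 or siKIF11 (100%), as the mean of biological triplicates. Percent viability is the nuclei count relative to siNT.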

MCF10A [2] = experiment: one-nucleolus phenotype percent effect (relative to siNT 0% and siNOL11 100%); higher = more cells with one nucleolus (ribosome biogenesis inhibition)
Experimental: as §1

MCF10A [3] = experiment: percent viability (nuclei count relative to siNT); higher = more viable cells
Experimental: as §1

| Sequence | 5+ nucleoli phenotype percent effect (MCF10A [1]) | one-nucleolus phenotype percent effect (MCF10A [2]) | percent viability (MCF10A [3]) |
| --- | --- | --- | --- |
| AGCAUGACAGAGGAGAGGUGG [hsa-miR-6076] | -17.6% | 7.38% | 33.8% |
| AGCCAAGUGGAAGUUACUUUA [hsa-miR-4480] | -37.2% | 33.8% | 21.9% |
| AGCCAGGCUCUGAAGGGAAAGU [hsa-miR-4755-3p] | 3.33% | 7.85% | 59.3% |
| AGCCCCCUGGCCCCAAACCC [hsa-miR-4313] | 6.68% | -4.86% | 38.7% |
| AGCCCCUGCCCACCGCACACUG [hsa-miR-210-5p] | 53% | -21% | 101% |
| AGCCCGCCCCAGCCGAGGUUCU [hsa-miR-4707-3p] | -25.2% | 19.7% | 42.9% |
| AGCCGCGGGGAUCGCCGAGGG [hsa-miR-3648] | 19.7% | -17.8% | 88.3% |
| AGCCGCUCUUCUCCCUGCCCACA [hsa-miR-6743-3p] | 35.5% | -1.42% | 58% |
| AGCCUGGAAGCUGGAGCCUGCAGU [hsa-miR-1254] | -6.84% | 10.5% | 50.1% |
| AGCCUGUGCUUGUCCCUGCAG [hsa-miR-6811-3p] | -10.2% | 24.6% | 11.8% |
| AGCCUUCCAGGAGAAAUGGAGA [hsa-miR-5581-5p] | -16.7% | 20.5% | 14.3% |
| AGCGAGGUUGCCCUUUGUAUAU [hsa-miR-381-5p] | 0.715% | -12.7% | 52.5% |
| AGCGCGGGCUGAGCGCUGCCAGUC [hsa-miR-2277-5p] | -22.4% | 25.5% | 31.3% |
| AGCGGGGAGGAAGUGGGCGCUGCUU [hsa-miR-4706] | -0.458% | -0.404% | 32.7% |
| AGCGGUGCUCCUGCGGGCCGA [hsa-miR-4746-3p] | -33% | 35.6% | 34.7% |
| AGCGUGGGAUGUCCAUGAAGUCAG [hsa-miR-6853-5p] | 90.6% | -26.6% | 71.7% |
| AGCUACAGUUACUUUUGCACCA [hsa-miR-548v] | -8.87% | -5.59% | 68.4% |
| AGCUACAUCUGGCUACUGGGU [hsa-miR-222-3p] | -9.89% | -5.3% | 71.6% |
| AGCUACAUUGUCUGCUGGGUUUC [hsa-miR-221-3p] | -17.8% | 4% | 59.9% |
| AGCUCCCUGAAUCCCUGUCCCAG [hsa-miR-7106-3p] | 32.5% | -19.5% | 74.6% |

| Sequence | 5+ nucleoli phenotype percent effect (MCF10A [1]) | one-nucleolus phenotype percent effect (MCF10A [2]) | percent viability (MCF10A [3]) |
| --- | --- | --- | --- |
| AGCUCGGUCUGAGGCCCCUCAGU [hsa-miR-423-3p] | -11.8% | 19.5% | 56.6% |
| AGCUCUAGAAAGAUUGUUGACC [hsa-miR-6502-5p] | 66.5% | -17.4% | 93.5% |
| AGCUCUGCUGCUCACUGGCAGU [hsa-miR-3194-3p] | 6.75% | 1.77% | 22.1% |
| AGCUGAGCUCCAUGGACGUGCAGU [hsa-miR-4663] | 16.3% | -21.4% | 67% |
| AGCUGGUAAAAUGGAACCAAAU [hsa-miR-133a-5p] | -4.69% | 7.21% | 30.7% |
| AGCUGGUGUUGUGAAUCAGGCCG [hsa-miR-138-5p] | -24.6% | 13.5% | 21.6% |
| AGCUGUAAUUAGUCAGUUUUCU [hsa-miR-1537-5p] | 31.8% | -20.9% | 117% |
| AGCUGUACCUGAAACCAAGCA [hsa-miR-4718] | -2.07% | 9.98% | 77.5% |
| AGCUGUCUGAAAAUGUCUU [hsa-miR-626] | 25.1% | 2.9% | 50.2% |
| AGCUGUCUGUGUUUUCCUUCUCAG [hsa-miR-6876-3p] | -19.1% | 6.32% | 58.5% |
| AGCUUCCAUGACUCCUGAUGGA [hsa-miR-2115-5p] | -3.91% | -7.01% | 137% |
| AGCUUCUUUACAGUGCUGCCUUG [hsa-miR-103a-2-5p] | -36.6% | 7.49% | 36.7% |
| AGGAAACAGGGACCCA [hsa-miR-4261] | -16.8% | 37.1% | 32.1% |
| AGGAAAUGAGGCUGGCUAGGAGC [hsa-miR-5093] | 0.0169% | 23.8% | 25.8% |
| AGGAAGCAAGAGAACCCUGUGG [hsa-miR-6828-5p] | -41.5% | 18.9% | 26.9% |
| AGGAAGCCCUGGAGGGGCUGGAG [hsa-miR-671-5p] | -27.7% | 58.7% | 45.3% |
| AGGAAUGUUCCUUCUUUGCC [hsa-miR-613] | -37.9% | 36.5% | 44.4% |
| AGGACCUGCGGGACAAGAUUCUU [hsa-miR-492] | -18.8% | 9.32% | 49% |
| AGGACCUUCCCUGAACCAAGGA [hsa-miR-659-5p] | -33.7% | 34.3% | 40.3% |
| AGGACUGAUCCUCUCGGGCAGG [hsa-miR-4740-5p] | -14.8% | 47.7% | 24.1% |

| Sequence | 5+ nucleoli phenotype percent effect (MCF10A [1]) | one-nucleolus phenotype percent effect (MCF10A [2]) | percent viability (MCF10A [3]) |
| --- | --- | --- | --- |
| AGGACUGGACUCCCGGCAGCCC [hsa-miR-4515] | -14.9% | 15.9% | 37.2% |
| AGGAGAAGUAAAGUAGAA [hsa-miR-4434] | 49.4% | -15.7% | 74.7% |
| AGGAGAAGUCGGGAAGGU [hsa-miR-5703] | 33.6% | -5.15% | 30.6% |
| AGGAGAGUGGAUUCCAGGUGGU [hsa-miR-5192] | 20.1% | 10.4% | 24.2% |
| AGGAGAUCCUGGGUU [hsa-miR-3676-5p] | -13.3% | 18.3% | 30.1% |
| AGGAGCUAGCCAGGCAUAUGCA [hsa-miR-4633-3p] | -40.1% | 37.9% | 15.3% |
| AGGAGGAAUUGGUGCUGGUCUU [hsa-miR-766-5p] | -33% | 33.8% | 5.17% |
| AGGAGGACAAGUUGUGGGAU [hsa-miR-7154-3p] | -9.57% | 39.7% | 7.01% |
| AGGAGGAUGGAGAGCUGGGCCAGA [hsa-miR-6894-5p] | 6.67% | 22.2% | 28.1% |
| AGGAGGCAGCGCUCUCAGGAC [hsa-miR-650] | -3.4% | 23.2% | 33.8% |
| AGGAGGCAUCUUGAGAAAUGGA [hsa-miR-3612] | 5.34% | 33.4% | 16.9% |
| AGGAGGGAAGGGGCUGAGAACAGGA [hsa-miR-6797-5p] | 33.9% | -10.1% | 80.7% |
| AGGAGGGAGGAGAUGGGCCAAGUU [hsa-miR-1249-5p] | -22.4% | 45.9% | 11.3% |
| AGGAGGUGGUACUAGGGGCCAGC [hsa-miR-6851-5p] | -20.3% | 31.8% | 15.2% |
| AGGAUAGGAAGAAUGAAGUGCU [hsa-miR-5191] | -7.65% | 14.1% | 40.6% |
| AGGAUGAGCAAAGAAAGUAGAUU [hsa-miR-1255a] | 55.6% | -24.4% | 128% |
| AGGAUUUCAGAAAUACUGGUGU [hsa-miR-3167] | -10.4% | -14.6% | 49.1% |
| AGGCAAGAUGCUGGCAUAGCU [hsa-miR-31-5p] | -4.74% | 26% | 16.8% |
| AGGCACCAGCCAGGCAUUGCUCAGC [hsa-miR-593-5p] | -0.886% | 12.3% | 40.2% |
